{"source": "paper PMC4460869", "biological_target": "GST-tagged BmAPN4 (silkworm aminopeptidase N 4) (Bombyx mori)", "data": [{"substance": "trypsin-activated parasporal crystal toxin (PC) from Bacillus bombysepticus (domain or fragment)", "values": [{"measurement": "proportion of viable BmAPN4-expressing Sf9 cells after PC, counted in 50 optical fields", "result": 15.8, "unit": "%"}, {"measurement": "release of total intracellular LDH from BmAPN4-transfected Sf9 cells into the medium after trypsin-activated PC, 6 h; untransfected Sf9 cells not affected", "result": 35.3, "unit": "%"}]}]}
